In patent US20250114463A1, “LIVER-TARGETED DRUG AND USE THEREOF” (HANMI PHARM. CO., LTD., priority 2021, published 2025):
Changes are numbered by the printed parent chain. Bridges are numbered along the chain shown (N, C = ends). Where no end group is shown, it is not given here. [ ]: non-standard residue; d: D form. Aib = CC(C)(N)C(=O)O

T1: human GIP receptor (human, UniProt P48546 22-466)
T1 sequence (looked up): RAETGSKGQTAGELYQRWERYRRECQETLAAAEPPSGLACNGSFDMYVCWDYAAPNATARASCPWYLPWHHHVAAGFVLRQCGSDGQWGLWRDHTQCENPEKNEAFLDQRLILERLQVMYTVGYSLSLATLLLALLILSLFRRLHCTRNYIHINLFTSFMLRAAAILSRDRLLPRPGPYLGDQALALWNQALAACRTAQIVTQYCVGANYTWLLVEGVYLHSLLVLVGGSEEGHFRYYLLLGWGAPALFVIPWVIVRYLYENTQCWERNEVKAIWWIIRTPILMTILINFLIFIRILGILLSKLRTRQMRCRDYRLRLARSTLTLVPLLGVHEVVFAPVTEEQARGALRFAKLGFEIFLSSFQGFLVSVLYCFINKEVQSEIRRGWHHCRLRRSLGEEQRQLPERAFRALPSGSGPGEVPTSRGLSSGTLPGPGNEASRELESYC

B1: triple agonist of SEQ ID NO: 27 (peptide)
peptide: HXQGTFTSDYSKYLDERACQDFVQWLLDQGGPSSGAPPPS
HELM: PEPTIDE1{H.[Aib].Q.G.T.F.T.S.D.Y.S.K.Y.L.D.E.R.A.C.Q.D.F.V.Q.W.L.L.D.Q.G.G.P.S.S.G.A.P.P.P.S.[am]}$$$$V2.0; N-terminus assumed
SMILES: CC(C)C[C@H](NC(=O)[C@H](CC(C)C)NC(=O)[C@H](Cc1c[nH]c2ccccc12)NC(=O)[C@H](CCC(N)=O)NC(=O)[C@@H](NC(=O)[C@H](Cc1ccccc1)NC(=O)[C@H](CC(=O)O)NC(=O)[C@H](CCC(N)=O)NC(=O)[C@H](CS)NC(=O)[C@H](C)NC(=O)[C@H](CCCNC(=N)N)NC(=O)[C@H](CCC(=O)O)NC(=O)[C@H](CC(=O)O)NC(=O)[C@H](CC(C)C)NC(=O)[C@H](Cc1ccc(O)cc1)NC(=O)[C@H](CCCCN)NC(=O)[C@H](CO)NC(=O)[C@H](Cc1ccc(O)cc1)NC(=O)[C@H](CC(=O)O)NC(=O)[C@H](CO)NC(=O)[C@@H](NC(=O)[C@H](Cc1ccccc1)NC(=O)[C@@H](NC(=O)CNC(=O)[C@H](CCC(N)=O)NC(=O)C(C)(C)NC(=O)[C@@H](N)Cc1c[nH]cn1)[C@@H](C)O)[C@@H](C)O)C(C)C)C(=O)N[C@@H](CC(=O)O)C(=O)N[C@@H](CCC(N)=O)C(=O)NCC(=O)NCC(=O)N1CCC[C@H]1C(=O)N[C@@H](CO)C(=O)N[C@@H](CO)C(=O)NCC(=O)N[C@@H](C)C(=O)N1CCC[C@H]1C(=O)N1CCC[C@H]1C(=O)N1CCC[C@H]1C(=O)N[C@@H](CO)C(N)=O
B2: triple agonist of SEQ ID NO: 25 (peptide)
peptide: HXQGTFTSDCSKYLDERAAQDFVQWLLDGGPSSGAPPPS
HELM: PEPTIDE1{H.[Aib].Q.G.T.F.T.S.D.C.S.K.Y.L.D.E.R.A.A.Q.D.F.V.Q.W.L.L.D.G.G.P.S.S.G.A.P.P.P.S.[am]}$$$$V2.0; N-terminus assumed
SMILES: CC(C)C[C@H](NC(=O)[C@H](CC(C)C)NC(=O)[C@H](Cc1c[nH]c2ccccc12)NC(=O)[C@H](CCC(N)=O)NC(=O)[C@@H](NC(=O)[C@H](Cc1ccccc1)NC(=O)[C@H](CC(=O)O)NC(=O)[C@H](CCC(N)=O)NC(=O)[C@H](C)NC(=O)[C@H](C)NC(=O)[C@H](CCCNC(=N)N)NC(=O)[C@H](CCC(=O)O)NC(=O)[C@H](CC(=O)O)NC(=O)[C@H](CC(C)C)NC(=O)[C@H](Cc1ccc(O)cc1)NC(=O)[C@H](CCCCN)NC(=O)[C@H](CO)NC(=O)[C@H](CS)NC(=O)[C@H](CC(=O)O)NC(=O)[C@H](CO)NC(=O)[C@@H](NC(=O)[C@H](Cc1ccccc1)NC(=O)[C@@H](NC(=O)CNC(=O)[C@H](CCC(N)=O)NC(=O)C(C)(C)NC(=O)[C@@H](N)Cc1c[nH]cn1)[C@@H](C)O)[C@@H](C)O)C(C)C)C(=O)N[C@@H](CC(=O)O)C(=O)NCC(=O)NCC(=O)N1CCC[C@H]1C(=O)N[C@@H](CO)C(=O)N[C@@H](CO)C(=O)NCC(=O)N[C@@H](C)C(=O)N1CCC[C@H]1C(=O)N1CCC[C@H]1C(=O)N1CCC[C@H]1C(=O)N[C@@H](CO)C(N)=O
B3: triple agonist of SEQ ID NO: 26 (peptide)
peptide: B2 peptide with E16S
HELM: PEPTIDE1{H.[Aib].Q.G.T.F.T.S.D.C.S.K.Y.L.D.S.R.A.A.Q.D.F.V.Q.W.L.L.D.G.G.P.S.S.G.A.P.P.P.S.[am]}$$$$V2.0; N-terminus assumed
SMILES: CC(C)C[C@H](NC(=O)[C@H](CC(C)C)NC(=O)[C@H](Cc1c[nH]c2ccccc12)NC(=O)[C@H](CCC(N)=O)NC(=O)[C@@H](NC(=O)[C@H](Cc1ccccc1)NC(=O)[C@H](CC(=O)O)NC(=O)[C@H](CCC(N)=O)NC(=O)[C@H](C)NC(=O)[C@H](C)NC(=O)[C@H](CCCNC(=N)N)NC(=O)[C@H](CO)NC(=O)[C@H](CC(=O)O)NC(=O)[C@H](CC(C)C)NC(=O)[C@H](Cc1ccc(O)cc1)NC(=O)[C@H](CCCCN)NC(=O)[C@H](CO)NC(=O)[C@H](CS)NC(=O)[C@H](CC(=O)O)NC(=O)[C@H](CO)NC(=O)[C@@H](NC(=O)[C@H](Cc1ccccc1)NC(=O)[C@@H](NC(=O)CNC(=O)[C@H](CCC(N)=O)NC(=O)C(C)(C)NC(=O)[C@@H](N)Cc1c[nH]cn1)[C@@H](C)O)[C@@H](C)O)C(C)C)C(=O)N[C@@H](CC(=O)O)C(=O)NCC(=O)NCC(=O)N1CCC[C@H]1C(=O)N[C@@H](CO)C(=O)N[C@@H](CO)C(=O)NCC(=O)N[C@@H](C)C(=O)N1CCC[C@H]1C(=O)N1CCC[C@H]1C(=O)N1CCC[C@H]1C(=O)N[C@@H](CO)C(N)=O

Key:
Experiment in all cases: cell-based or functional assay
[1] = target: T1, human GIP receptor
[2] = target: human GCG receptor (human, UniProt P47871 26-477)
human GCG receptor, sequence (P47871 26-477): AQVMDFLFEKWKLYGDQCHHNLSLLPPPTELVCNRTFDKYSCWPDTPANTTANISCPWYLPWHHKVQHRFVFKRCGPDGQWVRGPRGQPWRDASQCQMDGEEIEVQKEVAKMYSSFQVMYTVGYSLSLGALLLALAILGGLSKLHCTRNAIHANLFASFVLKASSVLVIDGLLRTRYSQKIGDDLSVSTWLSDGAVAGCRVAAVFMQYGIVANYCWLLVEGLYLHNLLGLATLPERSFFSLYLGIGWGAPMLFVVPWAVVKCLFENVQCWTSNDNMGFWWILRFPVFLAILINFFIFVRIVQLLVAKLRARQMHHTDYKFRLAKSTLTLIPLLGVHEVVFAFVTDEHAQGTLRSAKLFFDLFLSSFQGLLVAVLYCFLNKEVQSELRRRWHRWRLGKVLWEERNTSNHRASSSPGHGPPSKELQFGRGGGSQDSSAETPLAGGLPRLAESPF

[3] = target: human GLP-1 receptor (human, UniProt P43220 24-463)

Binder	in vitro Activity Compared to Native Peptide (%), vs GIP [1] [%]	in vitro Activity Compared to Native Peptide (%), vs Glucagon [2] [%]	in vitro Activity Compared to Native Peptide (%), vs GLP-1 [3] [%]
H[Aib]QGTFTSDYSKYLDEKACKEFVQWLLAQ (bridge 16-20; not fully specified (C-terminus)) [triple agonist of SEQ ID NO: 31]	2.4	2.2	135
H[Aib]QGTFTSDYSKYLDEKAQKEFVQWLLDTC (bridge 16-20; not fully specified (C-terminus)) [triple agonist of SEQ ID NO: 30]	0.8	0.7	142
H[Aib]QGTFTSDYSKYLDEKAAKEFVQWLLNTC (bridge 16-20; not fully specified (C-terminus)) [triple agonist of SEQ ID NO: 29]	< 0.1	6	38.5
H[Aib]QGTFTSDYSKYLDEKRAQEFVCWLLAQKGKKNDWKHNIT-NH2 [triple agonist of SEQ ID NO: 28]	< 0.1	1.6	17.2
H[Aib]QGTFTSDYSIAMDEIHQKDFVNWLLAQKC (bridge 16-20; not fully specified (C-terminus)) [triple agonist of SEQ ID NO: 33]	10.4	< 0.1	24.5
H[Aib]QGTFTSDYSKYLDEKACKDFVQWLLDGGPSSGAPPPS (bridge 16-20; not fully specified (C-terminus)) [triple agonist of SEQ ID NO: 32]	8.8	1.7	151
B1	0.9	0.8	83.1
B2	< 0.1	0.1	82.6
B3	< 0.1	0.2	64.5
